Substitutions are numbered along the chain they refer to.
How the values were obtained:
Rad51 wild-type = target: T1, Rad51 wild-type (Schizosaccharomyces pombe, UniProt P36601 1-365); test: fluorescence anisotropy; 1 mM ATP, 3 mM MgCl2; Hill n 1.99; main text prints 2.79 uM; 30 mM HEPES-KOH pH 7.5, 100 mM KCl, 3 mM MgCl2, 1 mM DTT, 5% glycerol, 1 mM ATP, 25 C (EMSA: 2 mM ATP, 37 C, then 0.2% glutaraldehyde); conditions: protein: recombinant; label: 5' TAMRA on strand 1; blunt
T1 sequence: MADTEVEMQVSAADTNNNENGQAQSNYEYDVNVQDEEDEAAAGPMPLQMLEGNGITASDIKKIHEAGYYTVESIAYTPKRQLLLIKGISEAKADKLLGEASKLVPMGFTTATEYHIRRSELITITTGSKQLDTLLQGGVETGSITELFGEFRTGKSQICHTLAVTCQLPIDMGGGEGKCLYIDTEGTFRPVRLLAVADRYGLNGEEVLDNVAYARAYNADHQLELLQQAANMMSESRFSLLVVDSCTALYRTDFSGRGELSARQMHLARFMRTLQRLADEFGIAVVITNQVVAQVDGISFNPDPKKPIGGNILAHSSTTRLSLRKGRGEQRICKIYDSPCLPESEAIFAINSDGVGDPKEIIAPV

Rad51-L2 = target: T2, Rad51-L2 (Schizosaccharomyces pombe, UniProt P36601 1-365, V295A); test: fluorescence anisotropy; 1 mM ATP, 3 mM MgCl2; Hill n 1.80; 30 mM HEPES-KOH pH 7.5, 100 mM KCl, 3 mM MgCl2, 1 mM DTT, 5% glycerol, 1 mM ATP, 25 C (EMSA: 2 mM ATP, 37 C, then 0.2% glutaraldehyde); conditions: protein: recombinant; label: 5' TAMRA on strand 1; blunt
T2 sequence: T1 sequence with V295A

B1: [TAMRA]16A(-)_72 bp duplex (dsDNA)
DNA 1: AAATGAACATAAAGTAAATAAGTATAAGGATAATACAAAATAAGTAAATGAATAAACATAGAAAATAAAGTA
DNA 2: TACTTTATTTTCTATGTTTATTCATTTACTTATTTTGTATTATCCTTATACTTATTTACTTTATGTTCATTT
For B1, which Kd (Rad51 wild-type) is on record?
The Kd was 2610 ± 200 nM.

And the Kd (Rad51-L2)?
The Kd was 3.52 ± 0.31 µM.
